Assay results published in the supplement of paper PMC11246515.
± gives the standard deviation of the averaged measurements.

Test: total protein half-life in vivo (active degradation + dilution); higher = more stable protein
[1] = E. coli NCM3722 delta-clpP delta-lon delta-hslV, growth: N-lim chemostat, doubling time 6 h
[2] = E. coli NCM3722 delta-clpP, growth: N-lim chemostat, doubling time 6 h
[3] = E. coli NCM3722 delta-hslV, growth: N-lim chemostat, doubling time 6 h
[4] = E. coli NCM3722 delta-lon, growth: N-lim chemostat, doubling time 6 h
[5] = E. coli NCM3722 delta-smpB, growth: N-lim chemostat, doubling time 6 h
[6] = wild type E. coli NCM3722, growth: C-lim chemostat, doubling time 3 h
[7] = wild type E. coli NCM3722, growth: C-lim chemostat, doubling time 6 h
[8] = wild type E. coli NCM3722, growth: C-lim chemostat, doubling time 12 h
[9] = wild type E. coli NCM3722, growth: N-lim chemostat, doubling time 6 h
[10] = wild type E. coli NCM3722, growth: N-lim chemostat, doubling time 12 h
[11] = wild type E. coli NCM3722, growth: P-lim chemostat, doubling time 6 h
[12] = wild type E. coli NCM3722, growth: P-lim chemostat, doubling time 12 h

| Sequence | total protein half-life in vivo [1] [h] | total protein half-life in vivo [2] [h] | total protein half-life in vivo [3] [h] | total protein half-life in vivo [4] [h] | total protein half-life in vivo [5] [h] | total protein half-life in vivo [6] [h] | total protein half-life in vivo [7] [h] | total protein half-life in vivo [8] [h] | total protein half-life in vivo [9] [h] | total protein half-life in vivo [10] [h] | total protein half-life in vivo [11] [h] | total protein half-life in vivo [12] [h] |
| --- | --- | --- | --- | --- | --- | --- | --- | --- | --- | --- | --- | --- |
| MSEKHPGPLVVEGKLTDAERMKHESNYLRGTIAEDLNDGLTGGFKGDNFLLIRFHGMYQQDDRDIRAERAEQKLEPRHAMLLRCRLPGGVITTKQWQAIDKFAGENTIYGSIRLTNRQTFQFHGILKKNVKPVHQMLHSVGLDALATANDMNRNVLCTSNPYESQLHAEAYEWAKKISEHLLPRTRAYAEIWLDQEKVATTDEEPILGQTYLPRKFKTTVVIPPQNDIDLHANDMNFVAIAENGKLVGFNLLVGGGLSIEHGNKKTYARTASEFGYLPLEHTLAVAEAVVTTQRDWGNRTDRKNAKTKYTLERVGVETFKAEVERRAGIKFEPIRPYEFTGRGDRIGWVKGIDDNWHLTLFIENGRILDYPARPLKTGLLEIAKIHKGDFRITANQNLIIAGVPESEKAKIEKIAKESGLMNAVTPQRENSMACVSFPTCPLAMAEAERFLPSFIDNIDNLMAKHGVSDEHIVMRVTGCPNGCGRAMLAEVGLVGKAPGRYNLHLGGNRIGTRIPRMYKENITEPEILASLDELIGRWAKEREAGEGFGDFTVRAGIIRPVLDPARDLWD | 4.99 ± 0.69 | 3.79 ± 0.29 | 2.52 ± 0.056 | 3.07 ± 0.14 | 2.55 ± 0.1 | 2.55 ± 0.13 | 4.1634 ± 0.0008 | 5.98 ± 0.51 | 2.82 ± 0.28 | 3.73 ± 0.062 | 3.91 ± 0.24 | 6.82 ± 0.1 |
| MNKEQSADDPSVDLIRVKNMLNSTISMSYPDVVIACIEHKVSLEAFRAIEAALVKHDNNMKDYSLVVD | > 8 | – | > 8 | > 8 | – | 2.94 ± 0.043 | – | 9.95 | – | 10.8 ± 6 | 4.21 | – |
| MSQRITIDPVTRIEGHLRIDCEIENGVVSKAWASGTMWRGMEEIVKNRDPRDAWMIVQRICGVCTTTHALSSVRAAESALNIDVPVNAQYIRNIILAAHTTHDHIVHFYQLSALDWVDITSALQADPTKASEMLKGVSTWHLNSPEEFTKVQNKIKDLVASGQLGIFANGYWGHPAMKLPPEVNLIAVAHYLQALECQRDANRVVALLGGKTPHIQNLAVGGVANPINLDGLGVLNLERLMYIKSFIDKLSDFVEQVYKVDTAVIAAFYPEWLTRGKGAVNYLSVPEFPTDSKNGSFLFPGGYIENADLSSYRPITSHSDEYLIKGIQESAKHSWYKDEAPQAPWEGTTIPAYDGWSDDGKYSWVKSPTFYGKTVEVGPLANMLVKLAAGRESTQNKLNEIVAIYQKLTGNTLEVAQLHSTLGRIIGRTVHCCELQDILQNQYSALITNIGKGDHTTFVKPNIPATGEFKGVGFLEAPRGMLSHWMVIKDGIISNYQAVVPSTWNSGPRNFNDDVGPYEQSLVGTPVADPNKPLEVVRTIHSFDPCMACAVHVVDADGNEVVSVKVL [P0ACE0] | 5.01 ± 1.1 | 4.55 ± 1.2 | 3.87 ± 1.6 | – | 2.6 ± 0.2 | 2.07 ± 0.18 | 4.37 ± 1 | 7.59 ± 2.3 | 3.47 ± 0.036 | 4.62 | 4.92 ± 2.1 | 10.7 ± 4.1 |
| MGEISITKLLVVAALVVLLFGTKKLRTLGGDLGAAIKGFKKAMNDDDAAAKKGADVDLQAEKLSHKE [P0A843] | 1.78 ± 1 | 1.57 ± 0.29 | 1.48 ± 0.19 | 1.01 ± 0.26 | 1.05 ± 0.24 | 0.833 ± 0.13 | 0.983 | 1.3 ± 0.34 | 1.79 | 2.14 ± 0.98 | 0.79 | 1.59 ± 0.77 |
| MPSARLQQQFIRLWQCCEGKSQDTTLNELAALLSCSRRHMRTLLNTMQDRGWLTWEAEVGRGKRSRLTFLYTGLALQQQRAEDLLEQDRIDQLVQLVGDKATVRQMLVSHLGRSFRQGRHILRVLYYRPLRNLLPGSALRRSETHIARQIFSSLTRINEENGELEADIAHHWQQISPLHWRFFLRPGVHFHHGRELEMDDVIASLKRINTLPLYSHIADIVSPTPWTLDIHLTQPDRWLPLLLGQVPAMILPREWETLSNFASHPIGTGPYAVIRNSTNQLKIQAFDDFFGYRALIDEVNVWVLPEIADEPAGGLMLKGPQGEEKEIESRLEEGCYYLLFDSRTHRGANQQVRDWVSYVLSPTNLVYFAEEQYQQLWFPAYGLLPRWHHARTIKSEKPAGLESLTLTFYQDHSEHRVIAGIMQQILASHQVTLKIKEIDYDQWHTGEIESDIWLNSANFTLPLDFSVFAHLCEVPLLQHCIPIDWQADAARWRNGEMNLANWCQQLVASKAMVPLLHHWLIIQGQRSMRGLRMNTLGWFDFKSAWFAPPDP | 6.14 ± 0.11 | 6.77 ± 0.29 | – | 5.83 ± 0.34 | 5.32 ± 0.33 | – | 5.64 ± 0.28 | 11.9 ± 2.8 | 5.67 ± 0.6 | 13.4 ± 0.32 | 5.35 ± 0.34 | 9.889 ± 0.087 |
| MSYTPMSDLGQQGLFDITRTLLQQPDLASLCEALSQLVKRSALADNAAIVLWQAQTQRASYYASREKDTPIKYEDETVLAHGPVRSILSRPDTLHCSYEEFCETWPQLDAGGLYPKFGHYCLMPLAAEGHIFGGCEFIRYDDRPWSEKEFNRLQTFTQIVSVVTEQIQSRVVNNVDYELLCRERDNFRILVAITNAVLSRLDMDELVSEVAKEIHYYFDIDDISIVLRSHRKNKLNIYSTHYLDKQHPAHEQSEVDEAGTLTERVFKSKEMLLINLHERDDLAPYERMLFDTWGNQIQTLCLLPLMSGDTMLGVLKLAQCEEKVFTTTNLNLLRQIAERVAIAVDNALAYQEIHRLKERLVDENLALTEQLNNVDSEFGEIIGRSEAMYSVLKQVEMVAQSDSTVLILGETGTGKELIARAIHNLSGRNNRRMVKMNCAAMPAGLLESDLFGHERGAFTGASAQRIGRFELADKSSLFLDEVGDMPLELQPKLLRVLQEQEFERLGSNKIIQTDVRLIAATNRDLKKMVADREFRSDLYYRLNVFPIHLPPLRERPEDIPLLAKAFTFKIARRLGRNIDSIPAETLRTLSNMEWPGNVRELENVIERAVLLTRGNVLQLSLPDIVLPEPETPPAATVVALEGEDEYQLIVRVLKETNGVVAGPKGAAQRLGLKRTTLLSRMKRLGIDKSALI | 6.33 ± 0.39 | 4.33 ± 0.27 | 3.33 ± 0.097 | 5.42 ± 0.29 | 3.22 ± 0.57 | 2.4 ± 0.24 | 5.33 ± 1.1 | 7.11 ± 0.98 | 3.48 ± 0.2 | 8.1 ± 4.8 | 2.84 | 5.132 ± 0.02 |
